According to article PMC12207370, “Macrocyclic Peptide Probes for Immunomodulatory Protein CD59: Potent Modulators of Bacterial Toxin Activity and Antibody‐Dependent Cytotoxicity” (Angewandte Chemie (International Ed. in English), 2025):

Biological target: T1, biotinylated CD59 (Homo sapiens, UniProt P13987)
T1 construct: Recombinant soluble human CD59 with an additional C-terminal cysteine residue
T1 sequence (P13987 26-102 limits assumed): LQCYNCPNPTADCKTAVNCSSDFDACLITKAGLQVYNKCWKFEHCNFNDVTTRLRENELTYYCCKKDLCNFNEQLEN
Test: mRNA-display cyclic peptide screen against CD59-biotin, NGS abundance after 6th selection round
Settings: for Percentage Seq I: counts normalised by total counts of sample Seq I; for Percentage Seq I / Percentage Seq II: percentage of the pool; for Percentage Seq I / Percentage Seq II / Percentage Average / Percentage of the pool, averaged across the two sequencing samples / Percentage of the pool, Seq I / Percentage of the pool, Seq II: sheet R6; for Percentage Seq II: counts normalised by total counts of sample Seq II; for Percentage Average: percentage of the pool averaged across the two sequencing samples; for Counts Seq I / Counts Seq II: raw NGS counts of peptide sequence; for Counts Seq I: sequencing sample Seq I; for Counts Seq I / Counts Seq II / Counts (raw counts for peptide sequence), Seq I / Counts (raw counts for peptide sequence), Seq II: sheet R6 (6th selection round); for Counts Seq II: sequencing sample Seq II; for Counts (raw counts for peptide sequence), Seq I: NGS sample Seq I; for Counts (raw counts for peptide sequence), Seq II: NGS sample Seq II; for Percentage of the pool, averaged across the two sequencing samples: average of Seq I and Seq II; for Percentage of the pool, Seq I: counts normalised by total counts of NGS sample Seq I; for Percentage of the pool, Seq II: counts normalised by total counts of NGS sample Seq II
Procedure, shortened: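 Peptide–mRNA fusions were made by in vitro translation with a customised PURE express kit. The kit lacked release factor 1 and methionine and was supplemented with […] initiator tRNA carrying N-chloroacetyl-d-tyrosine. Thioether macrocycles were formed, then enriched and amplified over iterative rounds on CD59-biotin immobilised on streptavidin beads. NGS read counts per sequence were recorded after the 6th selection round.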

Sequence	Percentage Seq I [%]	Percentage Seq II [%]	Percentage Average [%]	Counts Seq I	Counts Seq II	Counts (raw counts for peptide sequence), Seq I	Counts (raw counts for peptide sequence), Seq II	Percentage of the pool, averaged across the two sequencing samples [%]	Percentage of the pool, Seq I [%]	Percentage of the pool, Seq II [%]
WILGSRWWTQS	0.921	0.903	0.912	4031	389	–	–	–	–	–
WILGSRWWTQT	0.032	0.030	0.031	139	13	–	–	–	–	–
WILGSRWWTRS	0.097	0.111	0.104	424	48	–	–	–	–	–
WIRGNRDESLG	–	–	–	–	–	46	7	0.013	0.011	0.016
WIRGSRFYRVI	0.387	0.334	0.360	1692	144	–	–	–	–	–
WIRGSRWWTQS	0.033	0.035	0.034	146	15	–	–	–	–	–
WIYGGRHFRLS	–	–	–	–	–	82	2	0.012	0.019	0.00464
WRDRFDQCAL	–	–	–	–	–	67	6	0.015	0.015	0.014
WRDRFDQCIL	–	–	–	–	–	60	5	0.013	0.014	0.012
WRDRFDQCVI	–	–	–	–	–	37	5	0.010	0.00846	0.012
WRDRFDQCVL	2.463	2.351	2.407	10776	1013	–	–	–	–	–
WRDRFDQCVP	0.038	0.053	0.046	167	23	–	–	–	–	–
WRDRFDQCVR	0.039	0.053	0.046	169	23	–	–	–	–	–
WRDRFDRCVL	0.020	0.032	0.026	86	14	–	–	–	–	–
WRDRFGQCVL	–	–	–	–	–	27	7	0.011	0.006	0.016
WRDRLDQCVL	0.019	0.021	0.020	85	9	–	–	–	–	–
WSTGSSTFAAG	0.034	0.042	0.038	149	18	–	–	–	–	–
WSTRERQISC	–	–	–	–	–	70	3	0.011	0.016	0.007
WSTRTFTCRTLL	0.395	0.446	0.420	1728	192	–	–	–	–	–
WTCHLRHDGPHA	1.997	2.114	2.056	8737	911	–	–	–	–	–
WTRGSKDYARG	–	–	–	–	–	49	5	0.011	0.011	0.012
WTRGSKDYTRG	0.168	0.167	0.168	737	72	–	–	–	–	–
WVYGSRYWRSI	0.030	0.014	0.022	132	6	–	–	–	–	–

Sequence	Percentage Seq I [%]	Percentage Seq II [%]	Percentage Average [%]	Counts Seq I	Counts Seq II	Counts (raw counts for peptide sequence), Seq I	Counts (raw counts for peptide sequence), Seq II	Percentage of the pool, averaged across the two sequencing samples [%]	Percentage of the pool, Seq I [%]	Percentage of the pool, Seq II [%]
WVYGSSTFRYQ	0.030	0.030	0.030	133	13	–	–	–	–	–
YAFGSRDITYY	0.018	0.023	0.021	78	10	–	–	–	–	–
YAQGDKLTARG	0.028	0.026	0.027	124	11	–	–	–	–	–
YARGDASHTIW	0.043	0.056	0.049	186	24	–	–	–	–	–
YARGNNASQFF	0.089	0.088	0.089	391	38	–	–	–	–	–
YAWGNRNNAYY	0.060	0.049	0.054	263	21	–	–	–	–	–
YCWVRGSRNYT	0.064	0.060	0.062	279	26	–	–	–	–	–
YGASPTSLCSGI	0.166	0.186	0.176	727	80	–	–	–	–	–
YIIGSSDYTRG	0.033	0.039	0.036	146	17	–	–	–	–	–
YIRGTQDTFLF	–	–	–	–	–	46	7	0.013	0.011	0.016
YIVGSSDYTRG	0.417	0.388	0.402	1825	167	–	–	–	–	–
YIYWSFTSARG	0.050	0.032	0.041	219	14	–	–	–	–	–
YLFGDRFSVRG	0.094	0.100	0.097	412	43	–	–	–	–	–
YLSGSSNFARG	–	–	–	–	–	48	7	0.014	0.011	0.016
YLSGSSNFTRG	0.042	0.044	0.043	184	19	–	–	–	–	–
YSCPDWVRGSRT	–	–	–	–	–	36	6	0.011	0.008	0.014
YSSGSRHWTRS	–	–	–	–	–	57	7	0.015	0.013	0.016
YVFGNRSFARG	–	–	–	–	–	32	7	0.012	0.007	0.016
YVFGNRSFTRG	0.504	0.524	0.514	2205	226	–	–	–	–	–
YVFWSRTHTYG	0.172	0.165	0.168	751	71	–	–	–	–	–
YVRGDAWTVLG	0.027	0.019	0.023	117	8	–	–	–	–	–
YVRGDLYSVLG	–	–	–	–	–	40	5	0.010	0.009	0.012
YVTGNRDHTRG	–	–	–	–	–	66	8	0.017	0.015	0.019
